A value given as a limit tells only on which side of the number the result lay.

Test [1] concerns the target bovine cytochrome C, native (bovine) (UniProt P62894).
Test [2] deals with bovine cytochrome C, reduced and carboxymethylated (bovine) (UniProt P62894).
Test [3] deals with T1, bovine rhodanese, native (bovine) (UniProt P00586).
T1 sequence: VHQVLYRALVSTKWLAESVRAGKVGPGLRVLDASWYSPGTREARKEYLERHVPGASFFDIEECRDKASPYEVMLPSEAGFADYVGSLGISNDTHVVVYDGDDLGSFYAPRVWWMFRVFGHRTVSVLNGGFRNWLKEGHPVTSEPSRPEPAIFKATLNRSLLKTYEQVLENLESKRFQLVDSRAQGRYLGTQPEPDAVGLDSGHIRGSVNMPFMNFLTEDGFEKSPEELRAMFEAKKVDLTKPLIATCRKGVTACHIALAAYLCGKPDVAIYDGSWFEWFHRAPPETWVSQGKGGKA

The target of test [4] is T2, bovine rhodanese, reduced and carboxymethylated (bovine) (UniProt P00586).
T2 sequence (chain, reduced and carboxymethylated): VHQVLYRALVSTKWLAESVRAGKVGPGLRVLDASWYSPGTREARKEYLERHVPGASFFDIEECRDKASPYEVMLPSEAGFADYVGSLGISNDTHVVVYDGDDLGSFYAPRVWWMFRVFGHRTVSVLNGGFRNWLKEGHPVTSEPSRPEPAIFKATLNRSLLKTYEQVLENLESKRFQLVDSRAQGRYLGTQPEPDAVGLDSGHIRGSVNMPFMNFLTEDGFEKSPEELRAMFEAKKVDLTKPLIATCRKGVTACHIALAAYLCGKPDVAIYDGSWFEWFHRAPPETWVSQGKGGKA

Test [5] concerns the target subtilisin, reduced and carboxymethylated.
Test [6] concerns the target T3, synthetic acceptor peptide Arg-Ser-Pro-Pro-Pro.
T3 sequence (peptide): RSPPP

In test [7] the target is T4, synthetic acceptor peptide Arg-Thr-Pro-Pro-Pro.
T4 sequence (peptide): RTPPP

Test [8] deals with synthetic acceptor peptide Pro-Pro-Ala-D-Ser-Thr-D-Ser-Ala-Pro-Gly.

B1: bovine colostrum UDP-GalNAc:polypeptide, N-acetylgalactosaminyltransferase (purified soluble enzyme) (enzyme)
chain: GLPAGDVLEPVQKPHEGPGEMGKPVVIPKEDQEKMKEMFKINQFNLMASEMIALNRSLPDVRLEGCKTKVYPDNLPTTSVVIVFHNEAWSTLLRTVHSVINRSPRHMLEEIVLVDDASERDFLKRPLESYVKKLKVPVHVIRMEQRSGLIRARLKGAAVSKGQVITFLDAHCECTVGWLEPLLARIKHDRKTVVCPIIDVISDDTFEYMAGSDMTYGGFNWKLNFRWYPVPQREMDRRKGDRTLPVRTPTMAGGLFSIDRDYFQEIGTYDAGMDIWGGENLEISFRIWQCGGTLEIVTCSHVGHVFRKATPYTFPGGTGQIINKNNRRLAEVWMDEFKNFFYIISPGVTKVDYGDISSRLGLRHKLQCRPFSWYLENIYPDSQIPRHYFSLGEIRNVETNQCLDNMARKENEKVGIFNCHGMGGNQVFSYTANKEIRTDDLCLDVSKLNGPVTMLKCHHLKGNQLWEYDPVKLTLQHVNSNQCLDKATDEDSQVPSIRDCSGSRSQQWLLRNVTLPEIF
As to B1, the Product formed nmol/min/mg (transfer of N-acetylgalactosamine to protein acceptors) in test [1] was below 0.1 nmol/min/mg; in test [2] it was below 0.1 nmol/min/mg; in test [3] it was below 0.1 nmol/min/mg; in [4] it was 3.3 nmol/min/mg; with myelin basic protein, 22.2 nmol/min/mg; with subtilisin, native, below 0.1 nmol/min/mg. In addition, the Product formed nmol/min/mg (transfer of N-acetylgalactosamine to protein acceptors) in test [5] turned out to be 0.6 nmol/min/mg. For the same molecule, the Vmax /Km M^-1 s^-1 stood at 0.4 M⁻¹ s⁻¹ in test [6], 183 M⁻¹ s⁻¹ in [7] and 1.2 M⁻¹ s⁻¹ in test [8]. Further, the Km – broadly, the concentration of substrate that gives half-maximal velocity – in test [7] came out at 3.3 mM.

The values are drawn from US6096512.
